1 substance from patent US5885831 can be followed below.

In experiment [1] the target is LexA-TIM1 (Drosophila melanogaster). The experiment can be described thus: yeast two-hybrid, β-galactosidase activity of liquid cultures, LexA-TIM1, 22 C.
The target is the same in experiment [2]. The experiment can be described thus: yeast two-hybrid, β-galactosidase activity of liquid cultures, LexA-TIM1, 28 C.
Experiment [3] shares this target. In words: yeast two-hybrid, β-galactosidase activity of liquid cultures, LexA-TIM1, 35 C.

For the substance VP16-PER^L233-685 (from UniProt P07663), the fold change of the TIM interaction signal (β-galactosidase activity) against the wild type PER fragment in experiment [1] came out at 3.4 fold higher; in experiment [2], 1.8 fold higher; in experiment [3], 4.8 fold lower.
